EP4737480A1 (Japan Science and Technology Agency, dated 2026)

Biological target: recombinant HER2 molecule (UniProt P04626 23-652)
Experiment: BLI (Octet N1), HER2 on streptavidin biosensor

B1: trastuzumab light chain P95ΔP96Δ (other)
light: DIQMTQSPSSLSASVGDRVTITCRASQDVNTAVAWYQQKPGKAPKLLIYSASFLYSGVPSRFSGSRSGTDFTLTISSLQPEDFATYYCQQHYTTTFGQGTKVEIKRTVAAPSVFIFPPSDEQLKSGTASVVCLLNNFYPREAKVQWKVDNALQSGNSQESVTEQDSKDSTYSLSSTLTLSKADYEKHKVYACEVTHQGLSSPVTKSFNRGEC
notes: also called Tmb-L-PPΔ; Tmb-L-PΔΔ
- Kd: 123 nM
- koff: 0.00258 s⁻¹
- kon: 20900 M⁻¹ s⁻¹
